In paper PMC10776578, “Epstein-Barr virus-driven B cell lymphoma mediated by a direct LMP1-TRAF6 complex” (Nature Communications, 2024):

B1: unnamed (parent)
chain 1: DHQIRELTAKMETQSMYVSELKRTIRTLEDKVAEIEAQQCNGIYIWKIGNFGMHLKCQEEEKPVVIHSPGFYTGKPGYKLCMRLHLQLPTAQRCANYISLFVHTMQGEYDSHLPWPFQGTIRLTILDQSEAPVRQNHEEIMDAKPELLAFQRPTIPRNPKGFGYVTFMHLEALRQRTFIKDDTLLVRCEVSTRFDMGSLRREGFQPRSTDAGV
chain 2: LIWMYYHGQRHSDEHHHDDSLPHPQQATDDSGHESDSNSNEGRHHLLVSGAGDGPPLCSQNLGAPGGGPDNGPQDPDNTDDNGPQDPDNTDDNGPHDPLPQDPDNTDDNGPQDPDNTDDNGPHDPLPHSPSDSAGNDGGPPQLTEEVENKGGDQGPPLMTDGGGGHSHDSGHGGGDPHLPTLLLGSSGSGGDDDDPHGPVQLSYYD
B2: unnamed (parent)
chain 1: MSLLNCENSCGSSQSESDCCVAMASSCSAVTKDDSVGGTASTGNLSSSFMEEIQGYDVEFDPPLESKYECPICLMALREAVQTPCGHRFCKACIIKSIRDAGHKCPVDNEILLENQLFPDNFAKREILSLMVKCPNEGCLHKMELRHLEDHQAHCEFALMDCPQCQRPFQKFHINIHILKDCPRRQVSCDNCAASMAFEDKEIHDQNCPLANVICEYCNTILIREQMPNHYDLDCPTAPIPCTFSTFGCHEKMQRNHLARHLQENTQSHMRMLAQAVHSLSVIPDSGYISEVRNFQETIHQLEGRLVRQDHQIRELTAKMETQSMYVSELKRTIRTLEDKVAEIEAQQCNGIYIWKIGNFGMHLKCQEEEKPVVIHSPGFYTGKPGYKLCMRLHLQLPTAQRCANYISLFVHTMQGEYDSHLPWPFQGTIRLTILDQSEAPVRQNHEEIMDAKPELLAFQRPTIPRNPKGFGYVTFMHLEALRQRTFIKDDTLLVRCEVSTRFDMGSLRREGFQPRSTDAGV
chain 2: MEHDLERGPPGPRRPPRGPPLSSSLGLALLLLLLALLFWLYIVMSDWTGGALLVLYSFALMLIIIILIIFIFRRDLLCPLGALCILLLMITLLLIALWNLHGQALFLGIVLFIFGCLLVLGIWIYLLEMLWRLGATIWQLLAFFLAFFLDLILLIIALYLQQNWWTLLVDLLWLLLFLAILIWMYYHGQRHSDEHHHDDSLPHPQQATDDSGHESDSNSNEGRHHLLVSGAGDGPPLCSQNLGAPGGGPDNGPQDPDNTDDNGPQDPDNTDDNGPHDPLPQDPDNTDDNGPQDPDNTDDNGPHDPLPHSPSDSAGNDGGPPQLTEEVENKGGDQGPPLMTDGGGGHSHDSGHGGGDPHLPTLLLGSSGSGGDDDDPHGPVQLSYYD
B3: unnamed (parent)
chain 1: B1 chain 1
chain 2: GGGPYAQGEDARMLSLVSKTEIEEDSFRQMPTEDEYMDRPSQ
B4: unnamed (parent)
chain 1: B1 chain 1
chain 2: KKVAKKPTNKAPHPKQEPQEINFPDDLPGSNTAAPVQETLHGCQPVTQEDGKESRISVQERQ

Variants of: B1
Assay: AlphaScreen
Conditions: with partner chain of the complex shown; 100 nM His-TRAF6; parent: 100; read off a plot

| Variant | percent of parent [%] |
| --- | --- |
| chain 2 Q201A | 7 |
| chain 2 Y205A | 47 |
| chain 2 G198A | 75 |
| chain 2 Y204A | 11 |
| chain 2 V200A | 15 |
| chain 2 L202A | 100 |
| chain 2 P24A Q26A T28A | 83 |
| chain 2 S203A | 94 |
| chain 2 P199A | 18 |

Same assay, conditions: with partner chain of the complex shown; 300 nM His-TRAF6; parent: 100; read off a plot

| Variant | percent of parent [%] |
| --- | --- |
| chain 2 Q201A | 6 |
| chain 2 Y205A | 65 |
| chain 2 G198A | 84 |
| chain 2 Y204A | 10 |
| chain 2 V200A | 15 |
| chain 2 L202A | 98 |
| chain 2 P24A Q26A T28A | 98 |
| chain 2 S203A | 88 |
| chain 2 P199A | 19 |

Same assay, conditions: with partner chain of the complex shown; 1000 nM His-TRAF6; parent: 100; read off a plot

| Variant | percent of parent [%] |
| --- | --- |
| chain 2 Q201A | 4 |
| chain 2 Y205A | 84 |
| chain 2 G198A | 96 |
| chain 2 Y204A | 9 |
| chain 2 V200A | 14 |
| chain 2 L202A | 98 |
| chain 2 P24A Q26A T28A | 92 |
| chain 2 S203A | 90 |
| chain 2 P199A | 21 |

Same assay, conditions: with partner chain of the complex shown; parent: 100; read off a plot

| Variant | percent of parent [%] |
| --- | --- |
| chain 1 R83A | 4 |
| chain 1 F162A | 5 |
| chain 1 K160A | 100 |

Same assay, conditions: with partner chain of the complex shown

| Variant | Kd [nM] |
| --- | --- |
| chain 2 Y204F | 21.7 |

Variants of: B2
Assay: co-immunoprecipitation, quantified immunoblot
Conditions: with partner chain of the complex shown; HEK293 cells; parent: 1.3e+07; read off a plot

| Variant | response (relative intensity) |
| --- | --- |
| chain 1 R392A | 2.5e+06 |
| chain 1 Y473A | 5.5e+06 |
| chain 1 F471A | 6e+06 |
| chain 1 K469A | 1.8e+07 |

Variants of: B3
Assay: AlphaScreen
Conditions: with partner chain of the complex shown

| Variant | Kd [nM] |
| --- | --- |
| chain 2 E33Q | 15.6 |

Same assay, conditions: with partner chain of the complex shown; parent: 100; read off a plot

| Variant | percent of parent [%] |
| --- | --- |
| chain 1 F162A | 1 |
| chain 1 R83A | 1 |

Variants of: B4
Assay: AlphaScreen
Conditions: with partner chain of the complex shown; parent: 100; read off a plot

| Variant | percent of parent [%] |
| --- | --- |
| chain 1 F162A | 1 |
| chain 1 K160A | 90 |
| chain 1 R83A | 85 |
| chain 1 Y164A | 1 |
